From PMC8724787, “The epitope arrangement on flavivirus particles contributes to Mab C10’s extraordinary neutralization breadth across Zika and dengue viruses” (Cell, 2021) come the findings set out here.

Test [1] has as its target T1, ZIKV-H/PF/2013 sE protein (aa 1-404) (Zika virus (strain H/PF/2013)).
T1 construct: also called ZIKV sE; ZIKV (sE)2
Put plainly: BLI. Background: Biolayer interferometry detects binding as a change in optical thickness at a sensor tip.

The target of test [2] is T1, ZIKV-H/PF/2013 sE protein (aa 1-404). Kind of test: SEC-MALS; Superdex 200 10/300 GL; Tris 50 mM pH 8.0, NaCl 500 mM; about 150 ug protein; proteins alone and in complex. To be noted: both partners purified.
The target in test [3] is T2, DENV4_Burma/63632/1976 sE protein (aa 1-395) (Dengue virus 4 (strain Burma/63632/1976)).
T2 construct: also called DENV4 sE
T2 chain: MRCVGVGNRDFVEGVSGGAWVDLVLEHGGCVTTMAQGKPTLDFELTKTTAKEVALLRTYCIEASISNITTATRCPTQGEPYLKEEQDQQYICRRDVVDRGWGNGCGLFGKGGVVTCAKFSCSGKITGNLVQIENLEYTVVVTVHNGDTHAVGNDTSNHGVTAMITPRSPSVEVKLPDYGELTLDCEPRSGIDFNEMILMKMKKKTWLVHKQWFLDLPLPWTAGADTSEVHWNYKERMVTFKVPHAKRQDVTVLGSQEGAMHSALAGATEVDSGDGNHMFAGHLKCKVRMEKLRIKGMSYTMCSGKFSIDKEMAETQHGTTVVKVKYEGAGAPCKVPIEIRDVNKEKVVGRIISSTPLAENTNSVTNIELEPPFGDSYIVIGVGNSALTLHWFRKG
Put plainly: crystal structure. To be noted: both partners purified.

B1: K^L66A C10 mAb mutant (IgG1) (antibody, V domains shown)
VH: EVQLVESGAEVKKPGASVKVSCKASGYTFTSYAMHWVRQAPGQRLEWMGWINAGNGNTKYSQKFQDRVTITRDTSASTAYMELSSLRSEDTAIYYCARDKVDDYGDYWFPTLWYFDYWGQGTLVTVSS
VL: QSALTQPASVSGSPGQSITISCTGTSSDVGGFNYVSWFQQHPGKAPKLMLYDVTSRPSGVSSRFSGSASGNTASLTISGLQAEDEADYYCSSHTSRGTWVFGGGTKLTVL
notes: IgG1
With B1, in test [1], the other was 2 fold.

B2: C10 bivalent F(ab')2 (other, human)
VH: EVQLVESGAEVKKPGASVKVSCKASGYTFTSYAMHWVRQAPGQRLEWMGWINAGNGNTKYSQKFQDRVTITRDTSASTAYMELSSLRSEDTAIYYCARDKVDDYGDYWFPTLWYFDYWGQGTLVTVSS
VL: QSALTQPASVSGSPGQSITISCTGTSSDVGGFNYVSWFQQHPGKAPKLMLYDVTSRPSGVSSRFSGSKSGNTASLTISGLQAEDEADYYCSSHTSRGTWVFGGGTKLTVL
The stoichiometry N is the number of molecules, sites or subunits per partner or assembly. For the molecule B2, in test [2], the “stoichiometry N” value was 1 C10 molecule per sE dimer (2:2).

B3: C10 single-chain variable fragment (scFv) (scFv, V domains shown)
VH: EVQLVESGAEVKKPGASVKVSCKASGYTFTSYAMHWVRQAPGQRLEWMGWINAGNGNTKYSQKFQDRVTITRDTSASTAYMELSSLRSEDTAIYYCARDKVDDYGDYWFPTLWYFDYWGQGTLVTVSS
VL: QSALTQPASVSGSPGQSITISCTGTSSDVGGFNYVSWFQQHPGKAPKLMLYDVTSRPSGVSSRFSGSKSGNTASLTISGLQAEDEADYYCSSHTSRGTWVFGGGTKLTVL
Take B3: the binding result in test [3] is on record as “binds”.

B4: C10 intact bivalent IgG1 (human monoclonal antibody EDE1 C10) (antibody, V domains shown)
VH: EVQLVESGAEVKKPGASVKVSCKASGYTFTSYAMHWVRQAPGQRLEWMGWINAGNGNTKYSQKFQDRVTITRDTSASTAYMELSSLRSEDTAIYYCARDKVDDYGDYWFPTLWYFDYWGQGTLVTVSS
VL: QSALTQPASVSGSPGQSITISCTGTSSDVGGFNYVSWFQQHPGKAPKLMLYDVTSRPSGVSSRFSGSKSGNTASLTISGLQAEDEADYYCSSHTSRGTWVFGGGTKLTVL
Regarding B4, the “stoichiometry N” value in test [2] is 1 C10 molecule per sE dimer (2:2).
